The values below come from patent US20200165308A1 (published 2020).

In this assay the target is Netrin-1 (NET1) from Mus musculus lacking the C-terminal domain (NP_032770, aa: 24-457) (Mus musculus, UniProt O09118 24-457). Nature of the assay: solid-phase binding assay.

B1: full-length ectodomain of NEO1 (AAH54540, aa: 41-1107) (receptor)
chain: GAAATKSGSPPQSAGASVRTFTPFYFLVEPVDTLSVRGSSVILNCSAYSEPSPNIEWKKDGTFLNLESDDRRQLLPDGSLFISNVVHSKHNKPDEGFYQCVATVDNLGTIVSRTAKLTVAGLPRFTSQPEPSSVYVGNSAILNCEVNADLVPFVRWEQNRQPLLLDDRIVKLPSGTLVISNATEGDGGLYRCIVESGGPPKFSDEAELKVLQDPEEIVDLVFLMRPSSMMKVTGQSAVLPCVVSGLPAPVVRWMKNEEVLDTESSGRLVLLAGGCLEISDVTEDDAGTYFCIADNGNKTVEAQAELTVQVPPGFLKQPANIYAHESMDIVFECEVTGKPTPTVKWVKNGDVVIPSDYFKIVKEHNLQVLGLVKSDEGFYQCIAENDVGNAQAGAQLIILEHDVAIPTLPPTSLTSATTDHLAPATTGPLPSAPRDVVASLVSTRFIKLTWRTPASDPHGDNLTYSVFYTKEGVARERVENTSQPGEMQVTIQNLMPATVYIFKVMAQNKHGSGESSAPLRVETQPEVQLPGPAPNIRAYATSPTSITVTWETPLSGNGEIQNYKLYYMEKGTDKEQDIDVSSHSYTINGLKKYTEYSFRVVAYNKHGPGVSTQDVAVRTLSDVPSAAPQNLSLEVRNSKSIVIHWQPPSSTTQNGQITGYKIRYRKASRKSDVTETLVTGTQLSQLIEGLDRGTEYNFRVAALTVNGTGPATDWLSAETFESDLDETRVPEVPSSLHVRPLVTSIVVSWTPPENQNIVVRGYAIGYGIGSPHAQTIKVDYKQRYYTIENLDPSSHYVITLKAFNNVGEGIPLYESAVTRPHTVPDPTPMMPPVGVQASILSHDTIRITWADNSLPKHQKITDSRYYTVRWKTNIPANTKYKNANATTLSYLVTGLKPNTLYEFSVMVTKGRRSSTWSMTAHGATFELVPTSPPKDVTVVSKEGKPRTIIVNWQPPSEANGKITGYIIYYSTDVNAEIHDWVIEPVVGNRLTHQIQELTLDTPYYFKIQARNSKGMGPMSEAVQFRTPKALGSAGKGSRLPDLGSDYKPPMSGSNSPHGSPTSPLDSN
For orientation: Kd means the constant that tells how readily two partners part at equilibrium. The low end stands for tighter binding, the high end for weaker binding. As for B1, the Kd was found to be 7.58 nM.
